The values below come from a protein production outcome set (Wang et al. 2014).

A short description of the data set: label from the status in PepcDB records.
As for “MPQSAPPNTRQAVLWNDVSGKAWVEMQPILDEILAPFERLVVDAGYPREGGNVLDIGCGAGATTLAMARRVGNDGNCVGLDISQPLVALATERTKLGEVANASFEVGDAQTYAFESGHFDAAISRFGVMFFDDPMAAFTNIRKAVRRRGKLAFVAWRSPLENDFMTTAVRAAAPFLPPAPAPDPDAPGQFAFADGAKVRRILEASGWASIEVEQADVPCRIAQRDLMAYATRLGPLGAALREVDRATAERITTVLPAAFAPFVDDGEARFNAACWLVTALA”, the protein production entry was “failed”.

In the case of “MLLLTPGPTPIPERVQKALLRPMRGHLDPEVLRVNRAIQERLAALFDPGEGALVAALAGSGSLGMEAGLANLDRGPVLVLVNGAFSQRVAEMAALHGLDPEVLDFPPGEPVDPEAVARALKRRRYRMVALVHGETSTGVLNPAEAIGALAKEAGALFFLDAVTTLGMLPFSMRAMGVDYAFTGSQKCLSAPPGLAPIAASLEARKAFTGKRGWYLDLARVAEHWERGGYHHTTPVLLHYALLEALDLVLEEGVAARERRAREVYAWVLEELKARGFRPYPKASPLPTVLVVRPPEGVDADRLVRALYAEGVAVAGGIGPTRGQVLRLGLMGEGARREAYQAFLKALDRALALA”, the protein production result was “not failed”.

On to “MAPPSDSDPREPSPPLFQGRGLTKRFGSFVANQAIDLDIAGGEVHALLGENGAGKSTLVKLITGLLQPDDGRMIWRGTPISFAGPAEARACGIAAVSQHFALFDNLTVVENVALGLDRRISVGRLATELEQISQRYGLPLDPKREVWRLSVGERQRIEIVRALLQNPQLLILDEPTAVLTPAEADRLFDVLQRLRADGRALLYISHKLDEVKRLASVATILRAGRVVGSCDPRQESAASMARMMVGSDVTAPKQSSHSIGGPLLSVSGLTQRPDDPHGVTLRDIALEVRSGEIVGIAGVAGNGQDELFAALSGETPIAQSDVIHIAGEAAGSLSINQRRRLGAAFVPEQRLGHATVPTMSLSDNALLTGHATGALVKFGLVNRGAALALVDRVSEAFDVRKASRDPEAARLSGGNLQKFIVGREILRQPRLLIVDQPSWGLDAGAASAIRQALLDLAASGAAVLVISQDLDELIEIADRIAVMFHGRLSPPRPVSEIGRDQLGLLMGGSGWPAEVRDVAGALEHHHHHH”, for which the protein production result is given as “failed”.

For the sequence “MPSRRRFVLALAAALPAAGLLSACGFHLRGNNDFAFKRLYINLPQNSQMRAQLRRLIDNGSDTVVVSDKQDADAFLDVLSENRVKTISSLTPQGVVREYRITYRFSFQLRDAHDNLLIPPSEITLFRDLSYNETQVLAKDYEEAALYRDMQGDIVNQLVRRLASVRLPSLEHHHHHH”, the protein production entry was “failed”.

Turning to “MSLVSVIILASGNSQRMGQNKLFLKYQGKTFLEHTLTLVNQLDVLERILVVSPENQPAFPLPKNIQLILNHQWQEGQSSSIRLGTEQARGAGYLYLPSDQPLLTPKMLQLVLDKCQRNKIVVPLQKDGCPSSPVLFGNQFRQELLTLTGEKGGRMIYERFPEAVQMLRIATPGRLKDIDTPEEYQKLIQETNSLEHHHHHH”, the protein production result was “failed”.

With “MKLIAIDLDGTLLNSKHQVSLENENALRQAQRDGIEVVVSTGRAHFDVMSIFEPLGIKTWVISANGAVIHDPEGRLYHHETIDKKRAYDILSWLESENYYYEVFTGSAIYTPQNGRELLDVELDRFRSANPEADLSVLKQAAEVQYSQSGFAYINSFQELFEADEPIDFYNILGFSFFKEKLEAGWKRYEHAEDLTLVSSAEHNFELSSRKASKGQALKRLAKQLNIPLEETAAVGDSLNDKSMLEAAGKGVAMGNAREDIKSIADAVTLTNDEHGVAHMMKHLL”, the protein production result is recorded as “not failed”.

Consider “LYDQGGPVEILPFLYLGSAYHASRKDMLDALGITALINVSANCPNHFEGHYQYKSIPVEDNHKADISSWFNEAIDFIDSIKNAGGRVFVHCQAGISRSATICLAYLMRTNRVKLDEAFEFVKQRRSIISPNFSFMGQLLQFESQVLAPHCSAEAGSPAMAVLDRGTSTTTVFNFPVSIPVHSTNSALSYLQSPITTSPSC”, for which the protein production entry is recorded as “failed”.

“MKILAISGSARRNSTNTAMLQAVRAVAPGEIEISIFDGVGRLPVFSPDLEGESLPEVVRNLIDVIAQSDGVIIASPEYVRSIPGGLKNAIDWLVSGDDIVHKPIALLHASHRGDDMLAGLRTVLATITDRFAGDIFLRLPLMKLEPADVLKAVEAAENRSRVQAYLQAFSAYCMADSKTA”: the protein production result was “failed”.

Turning to “MEFQSTVVATVDCQKQVRSWRLLRSFIQLLIPTCNCTLVQELEQDNTNLRGKKLYNDIKSRTSSFRSSSSLSSSTVTGTIFGYRKGKINFCIQTPRKSTNLDLLLELAVPTTVLAREMREGALRIVLERNNEKQDDDSFLSKPFWNMYCNGKRVGYARKRSPSQDDMTALTALSKVVVGAGVVTGKELGRFDDELMYLRASFRRVNGSKESESFHLIDPAGNIGQELSIFIVPSSV”, the protein production result was “failed”.

For “MALKDTGSGGSTILPISEMVSASSSPGAPLAAAPGPCAPSPFPEVVELNVGGQVYVTKHSTLLSVPDSTLASMFSPSSPRGGARRRGDLPRDSRARFFIDRDGFLFRYVLDYLRDKQLALPEHFPEKERLLREAEFFQLTDLVKLLSPKVTKQNSLNDECCQSDLEDNVSQGSSDALLLRGAAAGAPSGSGAHGVSGVVGGGSAPDKRSGFLTLGYRGSYTTVRDNQADAKFRRVARIMVCGRIALAKEVFGDTLNESRDPDRQPEKYTSRFYLKFTYLEQAFDRLSEAGFHMVACNSSGTAAFVNQYRDDKIWSSYTEYIFFRPPQKIVSPKQEHEDRKRDKVTDKGSESGTSCNELSTSSCDSHSEASTPQDNPANTQQAAAHQPNTLTLDRPSRKAPVQWMPPPDKRRNSELFQSLISKSRETNLSKKKVCEKLSVEEEMKKCIQDFKKIHIPDCFPERKRQWQSELLQKYGL”, the protein production result is recorded as “failed”.

“MHIIQRNPSTNLPEGPYSATSAVKDPSHLPMGHHICFSVPNFDSFLHSLKEKGIETFQKSLPDGKVKQVFFFDPDGNGLEVASRS”: the protein production result was “failed”.

For “SKVWKYFGFDTNAEGCILQWKKIYCRICMAQIAYSGNTSNLSYHLEKNHPEEFCEFVKSN”, the protein production result is “not failed”.

As for “MFLDMLSLIRGQKIKLNDALQGQSSFYIQIHYQAAFDLDIASFGLDSQYRLSDERYMTFYNQPETPCQAVRLIENQNKCSRFLVDLAKLPATIQHLVLTAAIDGQNIMSQLQQVTVQILNLQLQPIAELKLDASIFDQERATMLIEIYRKEGIWRLAAIGQGFNAGLAALIQHFGGEVAEEPTAQQTTPVAPQSNIDLKKKLSLQKAEKTGNASIIDLTKKSLVQLEKKKLLGVTARVALVLDASGSMDGQYRRGDVQKVVNRLMPLAIHFDDDGSFECWAFAAETTQLDDVTLSNVNDFINSTQRGWKNWQVGARYNEEIPAIEAVINYFQKFQDQIPTYVLFISDGGVGSRRQMQKILSQAAKLPIFWQFVGIGGRNYGALEKLDEMSGRIVDNCNFFSLDRIDGVSDERLYELLLQEFPDWLIAARQHQIVRN”, the protein production entry is given as “failed”.

For the sequence “SAWALKLPLADEVIESGLVQDFDASLSGIGQELGAGAYSMSDVLALPIFKQEESSLPPDNENKILPFQYVLCAATSPAVKLHDETLTYLNQGQSYEIRMLDNRKLGELPEINGKLVKSIFRVVFHDRRLQYTEHQQLEGWRWNRPGDRILDIDIPMSVGIIDPRANPTQLNTVEFLWDPAKRTSVFIQVHCISTEFTMRKHGGEKGVPFRVQIDTFKENENGEYTEHLHSASCQIKVFKPKGADRKQKTDREKMEKRTPHEKEKYQPSYETTILTECSPWPEITYVNNSPSPGFNSSHSSFSLGEGNGSPNHQPEPPPPVTDNLLPTTTPQEAQQWLHRNRFSTFTRLFTNFSGADLLKLTRDDVIQICGPADGIRLFNALKGRMVRPRLTIYVCQESLQLREQQQQQQQQQQKHEDGDSNGTFFVYHAIYLEELTAVELTEKIAQLFSISPCQISQIYKQGPTGIHVLISDEMIQNFQEEACFILDTMKAETNDSYHIILK”, the protein production result is reported as “failed”.

“MCEGHTRNDPCERRHDPGARVRRKAGKIRSMILVFFSLCLGALIGALFRFPWYMLFLLAAIFWKRNKDISVVIFFTLLSASLYQIGTLPAGNYELVGYAERGRLKQVKVFQEEWKRIHPVRIETSEEGYVYAIGYFDGKAFHPSYLKKVEKPSLKTLKESFSGMANGTVLSVLFGEKNGDIYRSGLGHFFAVSGLHVGIAFSLYTTLLSFLTWRRTYQELTALLLLVPYVIAVGTPSVIRAYLTIFLWVAFKIFGFRTTPLHTTATVGSFMMIVDPTVVFTPSFLLSFFVTLCILESKNIFELTVKAYLSALPFLCLFFGGTNMSALVLSIPVSLLMIPVTWLAHLSFLLFLLGLKTSALIAAKITNIVSLPLNGFIKLANLLPEVPLPQYLYFILIFFPLLFLSPDIRDIFRKISGRAIL”: the protein production result is reported as “failed”.

In the case of “MPAFVTFGRILFAVLFIYTGATKLFAIQATADFIATKVVVPDIIAPYAKQIETATAMTTPQLLAIAVGALEIIAGLMIALNFGARFFAMLLIVYVAVATVLFYDFWNLAAPDNAKMLVDALKNLSIIGALCMIIGYGRATRPVEAAYGDV”, the protein production result is given as “failed”.

“MFLVLCSVMIFIGFLLQIYVWPRIPKSIFKYRGLVLSISLIILIFVVRIPLEITALTLPFYLMMFFGLFLFWKDRKL”: the protein production entry is “failed”.

Turning to “MEIEVKFRVNFEDIKRKIEGLGAKFFGIEEQEDVYFELPSPKLLRVRKINNTGKSYITYKEILDKRNEEFYELEFEVQDPEGAIELFKRLGFKVQGVVKKRRWIYKLNNVTFELNRVEKAGDFLDIEVITSNPEEGKKIIWDVARRLGLKEEDVEPKLYIELING”, the protein production entry is recorded as “not failed”.

In the case of “MEPSCTQNGMKPKLKISDLSRSLGPGIMMAAAAVGGSHLVASTKAGAIYGWEMLLLILAVNLLKYPFFRAGVQYTLGTGDSIIQGYHKLGRGYLWVFLVLSAISAVVNTAALLLFSASLLGYFLPFDLSLNVLSSIVLITCITILFAGHFKALDKLSKLIMATLTIATTIALGVAFSNGAVAPTDYQGPSVWSIASIGFLVITMGWMPAPIEISSITSMWLKRQCQTQKVTPQSALFDFNVGYIGTAILAVVFLSLGALVLYGSGIEFKASGIGFSHQLVGIYAATIGEWSRYLIAVIAFFCIFGSTITVIDGYSRAVSEAQLLLQRKPLNQPKHYNSWVMIVSVLAITIVTLFISSLMSMLDFAMIMAFITTPIFAALNYILVTKTELPDELRMGAKLKALSIVGLIYLFGFLAIFVWWKWLM”, the protein production result is “failed”.

Regarding “MKQMKFKYAYQLFFTQFIILLIACIMIGVLVSHSLKDYFYQSQVDDLTSYGQTISRDIRYSPQDATMQVLNTYQRILDVKKIHYTIKNANDETIYPTQMNQPLPKDFSISADDKKKLESGETVSKKIDNRFNKEMTIVYVPIMNGDKFVGSIVLNSPISGTEQVIGTINRYMFYTILLSITVALILSAILSKLQVNRINKLRAATKDVIQGNYNARLKENNFDEIGALAIDFNKMTQTLETSQEEIERQEKRRRQFIADVSHEMRTPLTTISGLTEGLVNDIIPKSETDRCIALIDTEARRLTKLVNENLDYEKIRSNKIKLQKTRFNGKEFLELIKEQLDYVASEKGNTITVAIDKDMAIYADYDRLTQVFINIVKNSVQFTENGQITLTGTQDYKESVLTITDTGIGMNTEELEQIWERFYKADMSRTNTAFGESGIGLSIVKQLIEYHDGSITVTSEPNKGTSFTIRLPFFQDNEQ”, the protein production entry is on record as “failed”.

As for “MARKRLIIEMGMGIDQHGQEPTIAASRAVRNAIAHNALPGVWEVAGLSHPNEMIIEVQVAVPYPEQVREEEVLAVLPFGRKTLTVESGGMIVQGRAIPELNDKNDEMLIAIAAVTVLIENE”, the protein production result is on record as “not failed”.
